# Test results reported in publication PMC7502447, “Characterization and functional analysis of two novel thermotolerant α-L-arabinofuranosidases belonging to glycoside hydrolase family 51 from Thielavia terrestris and family 62 from Eupenicillium parvum” (Applied Microbiology and Biotechnology, 2020).
# B1: TtABF51A (Thermothielavioides terrestris NRRL 8126) (protein)
# chain: AVTLSVAKSGGNATSPYMYGIMFEDISHSGDGGLYAELIQNRAFQNGTLDAWSAVGGATLALDTSTPLSQALPRSVKVTGGQHTAGLKNSGFWGFDVKKSKKYTGSFYSYGEYSGRFTVSLVSNTTSEIFATTTVKSKSVAGRWTQHTFELRPTKDAPDISNSFVLEYKPTPHTELKFNLISLFPPTYKNRANGMRPELMEKLKELNPTYIRCPGGNNVEGNYAGNYWNWSATVGPLKDRPGRPGTWGYYNTDGLGLVEYMHWAEDLGMDVVLAVPAGLYLDGEVVSEADLAPFVQDALNELEFLMGDVSTPYGALRAKLGYPKPWKIKFVEIGNEDNLWGGLDSYKGYRFRMFYDAIKAKYPDIFIFSSTAEYMYKQSGRDYHEYTRPDYFVSQFGMFDNWTAGNPIMIGEFASIQNNTGKLEDTDWNAPKNPWSTWIGSVAEAVFLLGAERNSDRVWGVSFAPLLQNLNSYQWTPDLISFTADPADTTVSVSYPILSLFAKHPLTHTLPATAANGTSFGPAYWVAGRNDAAGTYLLKAAVYNSTGGAEVPFRVGFDGLSRGAPATLTVLTAPGGPFAHNTPANKNAVKTAVTQLRAGEGGVLEFSLPDLSVAVLEAKW
# notes: full length 640 aa; predicted 20-aa signal peptide removed; C-terminal 6xHis; predicted N-terminal CBM4_9 kept; expressed in Trichoderma reesei D-86271
# Substrate: O=[N+]([O-])c1ccc(O[C@@H]2O[C@@H](CO)[C@H](O)[C@H]2O)cc1
# Test: purified protein
# Assay type: biochemical, Thermothielavioides terrestris
# Conditions: standard conditions, sodium acetate buffer, optimum pH 5.0, 70 °C
protein,measurement,value
B1,Km,300 ± 20 µM
same,Vmax,108 µmol/min/mg
same,kcat,123 ± 2.91 s⁻¹
